Experimental data published in patent publication US20190262327A1, “COMBINATION OF A BACE INHIBITOR AND AN ANTIBODY OR ANTIGEN-BINDING FRAGMENT FOR THE TREATMENT OF A DISORDER ASSOCIATED WITH THE ACCUMULATION OF AMYLOID BETA” (ASTRAZENECA AB, priority 2016, published 2019).

Target: T1, human Amyloid beta 1-42 peptide (Homo sapiens, UniProt P05067)
T1 construct: biotinylated human Amyloid beta 1-42 peptide (rpeptide, USA; cat: A1117); purchased rPeptide, USA A1117; host or cells: synthetic peptide
Experiment: Surface Plasmon Resonance kinetic profiling of purified scFv (ProteOn)
Format: binding
Conditions: biotinylated human Amyloid beta 1-42 on streptavidin chip
Source text: Surface Plasmon Resonance was used to analyse the purified scFv clones that had shown significant improvement in binding affinity for human Amyloid beta 1-42 peptide over the parent sequence, Abet0144-GL, in the HTRF™ epitope competition assay (sections 1.3-1.6). Briefly, the ProteOn Protein Interaction Array System (BioRad, USA) was used to assess the kinetic parameters of the interaction between each purified scFv and synthetically produced human Amyloid beta 1-42 peptide. These experiments were performed essentially as described by Karlsson et al. (Karlsson et al., 1991).
The affinity of binding between each test scFv and human Amyloid beta 1-42 was estimated using assays in which biotinylated synthetic human Amyloid beta 1-42 peptide (rPeptide, USA; cat: Al 117) was non-covalently bound via a biotin/streptavidin interaction to a proprietary streptavidin chip (NTA 176-5021) at five different surface densities. The chip surface was regenerated between cycles by a single 60 second injection of 10 mM Glycine pH 2.0 to remove scFv bound to the peptide.
Each scFv at 100-200 nM was sequentially passed over the peptide surface for a sufficient amount of time to observe sensorgrams that could be fitted to an appropriate binding model with confidence. An irrelevant scFv blank was subtracted from the main dataset to reduce the impact of any buffer artefacts or non-specific binding effects. An appropriate binding model was then fitted to the data.

T1 sequence (P05067 672-713): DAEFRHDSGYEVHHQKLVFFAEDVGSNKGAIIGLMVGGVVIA

Molecule | ka | kd
Abet0332: optimized anti-Aβ1-42 clone derived from Abet0144-GL (protein, left off: small tags and cut ends, optimized anti-Aβ1-42 clone derived from Abet0144-GL) scFv (part 1 of 2): EVQLLESGGGLVQPGESLRLSCAASSDSWHTDIMWWVRQAPGKRLEWVSVIGNSNKKIAYADSVKGRFTISRDNSKNTLYLQMNSLRAEDTAVYYCAREWMDHSRPYYYYGMDVWGQGTLVTVSS scFv (part 2 of 2): SYELTQPPSVSVSPGQTASITCSGHNIGAKWVSWYQQKPGQSPILVIYRDDKRPSGIPERFSASNSGHTATLTISGTQATDEADYYCQAQGQVTRSFGGGTKLTVL | 329000 M⁻¹ s⁻¹ | 0.000129 s⁻¹
Abet0322b: optimized anti-Aβ1-42 clone derived from Abet0144-GL (protein, left off: small tags and cut ends, optimized anti-Aβ1-42 clone derived from Abet0144-GL) scFv (part 1 of 2): EVQLLESGGGLVQPGGSLRLSCAASNEEFQYNPMWWVRQAPGKGLEWVSVIGSSGGATVYADAVKGRFTISRDNSENTLYLQMNSLRAEDTAVYYCAREWMDHSRPYYYYGMDVWGQGTLVTVSS scFv (part 2 of 2): SYELTQPPSVSVSPGQTASITCSGHNLGDKFASWYQQKPGQSPVLVIYRDDKRPSEIPERFSASNSGHTATLTISGTQATDEADYYCSSQDTVTRVFGGGTKLTVL | 203000 M⁻¹ s⁻¹ | 0.000165 s⁻¹
Abet0323b: optimized anti-Aβ1-42 clone derived from Abet0144-GL (protein, left off: small tags and cut ends, optimized anti-Aβ1-42 clone derived from Abet0144-GL) scFv (part 1 of 2): EVQLLESGGGLVQPGGSLRLSCAASTSTFQEDTMWWVRQAPGKGLEWVSVIGPNPKNNAYADSVKGRFTISRDNSKNTLYLQMNSLRAEDTAVYYCAREWMDHSRPYYYYGMDVWGQGTLVTVSS scFv (part 2 of 2): SYELTQPPSVSVSPGQTASITCSGHNLEDKFASWYQQKPGQSPVLVIYRDDKRPSGVPERFSASNSGHTATLTISGTQATDEADYYCSSQDTVTRVFGGGTKLIVL | 210000 M⁻¹ s⁻¹ | 0.000188 s⁻¹
Abet0342: optimized anti-Aβ1-42 clone derived from Abet0144-GL (protein, left off: small tags and cut ends, optimized anti-Aβ1-42 clone derived from Abet0144-GL) scFv (part 1 of 2): EVQLLESGGGLVQPGGSLRLSCAASGFDFRRSVMWWVRQAPGKGLEWVSVIGAQTQNKAYADSVKGRFTISRDNSKNTLYLQMNSLRAEDTAVYYCAREWMDHSRPYYYYGMDVWGQGTLVTVSS scFv (part 2 of 2): SYELTQPPSVSVSPGQTASITCSGHNLEDKFASWYQQKPGQSPVLVIYRDDKRPSGIPERFSASNSGDTATLTISGTQAMDEADYYCQAQDSTTRVFGGGTKLTVL | 136000 M⁻¹ s⁻¹ | 5.73e-05 s⁻¹
Abet0329: optimized anti-Aβ1-42 clone derived from Abet0144-GL (protein, left off: small tags and cut ends, optimized anti-Aβ1-42 clone derived from Abet0144-GL) scFv (part 1 of 2): EVQLLESGGGLVQPGGSLRLSCAASTFNLKRETMWWVRQAPGKGLEWVSVIGSHQERTSYADSVKGRFTISRDNSKNTLYLQMNSLRAEDTAVYYCAREWMDHSRPYYYYGMDVWGQGTLVTVSS scFv (part 2 of 2): SYELTQPPSVSVSPGQTASITCSGHNVSDKWMTWYQQKPGQSPVLVIYRDDKRPSGIPERFSASNSGHTATLTISGTQATDEADYYCSSQDTVTRVFGGGTKLTVL | 197000 M⁻¹ s⁻¹ | 0.000138 s⁻¹
Abet0328: optimized anti-Aβ1-42 clone derived from Abet0144-GL (protein, left off: small tags and cut ends, optimized anti-Aβ1-42 clone derived from Abet0144-GL) scFv (part 1 of 2): EVQLLESGGGLVQPGGSLRLSCAASRDPFKADTMWWVRQAPRKRLEWVSVIGAHTTNSAYADSVKGRFTISRDNSKNTLYLQMNSLRAEDTAVYYCAREWMDRSRPYYYYGMDVWGQGTLVTVSS scFv (part 2 of 2): SYELTQPPSVSVSPGQTVSITCSGRNLEDKFASWYQQKPGQSPVLVIYRDDKRPSGVPERFSASNSGHTATLTISGTQATDEADYYCSSQDTVTRVFGGGTKLTVL | 141000 M⁻¹ s⁻¹ | 0.000103 s⁻¹
